Measured values: publication PMC8249653

Substrate: C[C@H](O)C(=O)O
Experiment: cells, lysate or membranes
Conditions: pH 7.3, 37 °C, 2 min uptake, 1-100 µM L-lactate, labelled compound (14C tracer spike)

B1: Slc16a13 (SLC16A13/MCT13) (Mus musculus) (protein)
chain: MVRRAEPPDGGWGWMVVLSAFFQSALVFGVLRSFGVFFVEFVAAFEEQAARVSWIASIGIAVQQFGSPIGSALSTKLGPRPVVMTGGILAALGMLLASFATSLTHLYLSIGLLSGSGWALTFTPTMACLSRYFSQRRSLAMGLALTGVGISSFAFAPLFQWLINNYAWRGALLLVSALSLHLMACGALLRPLSLTEDAAVGGPGAQITSLLRHGPFLRYTAALTLINTGFFIPYVHLVAHLQDLGWDPLPAAFLLSVAAVSDLVGRVASGWLGDAVPGPVARLLMLWTTLTGVSLALFPVAQASSTLVVLAVAYGFTSGALTPVAFSVLPELVGTGRIYCGMGLVQMIESIGGLLGAPLSGYLRDVTGNYTASFVVAGAFLLAGSGVLLTLPHFFSCISVSTSRPQDLVIEASDTKIPLPKEEGLGEN
Km: 0.47 ± 0.35 µM
